{"source": "paper doi:10.1101/2024.08.29.610253", "about": "“Liprin-α/RIM complex regulates the dynamic assembly of presynaptic active zones via liquid-liquid phase separation” (bioRxiv, 2024)", "proteins": {"B1": {"name": "liprin-α2_CC2 (domain or fragment, human, UniProt O75334 259-542, looked up)", "chain": "GSIDSTDETSQIVELQELLEKQNYEMAQMKERLAALSSRVGEVEQEAETARKDLIKTEEMNTKYQRDIREAMAQKEDMEERITTLEKRYLSAQRESTSIHDMNDKLENELANKEAILRQMEEKNRQLQERLELAEQKLQQTMRKAETLPEVEAELAQRIAALTKAEERHGNIEERMRHLEGQLEEKNQELQRARQREKMNEEHNKRLSDTVDRLLTESNERLQLHLKERMAALEEKNVLIQESETFRKNLEESLHDKERLAEEIEKLRSELDQLKMRTGSLIEP", "notes": "liprin-α2, human, GenBank AF034799.1, CC2 region, residues 259-542; Dimeric by SEC-MALS at 500 μM; source: E. coli BL21(DE3), purified (Ni-NTA, SEC)"}}, "biological_target": "the molecule itself", "assay": "SEC-MALS; Superdex 200 Increase 10/300 GL in TBS (20 mM Tris pH 8.0, 100 mM NaCl, 1 mM EDTA, 1 mM DTT); individual proteins or mixture, up to 500 μM", "data": [{"protein": "B1", "values": [{"measurement": "stoichiometry N", "value": 2}]}]}
